Laboratory results taken from US20260049134A1 (UNIVERSITY OF FLORIDA RESEARCH FOUNDATION, published 2026).
Positions count from the first letter of the chain named. Numbers in names are those of the source. Blank lines part the entries; values can stand above or below the binder they belong to.

Experiments:
[1] = molecular target: T1, PTPRG, endogenous in H929 multiple myeloma cells (human, UniProt P23470 20-1445); experiment: flow cytometry, H929 + GARS siRNA; None 0.2
T1 construct: Native protein on H929 cells (flow cytometry, siRNA knockdown) and in H929 lysates (IP/MS); also called phosphatase receptor type γ

[2] = molecular target: T1, PTPRG, endogenous in H929 multiple …; experiment: flow cytometry, H929 + GARS siRNA; None 452
[3] = molecular target: T1, PTPRG, endogenous in H929 multiple …; experiment: flow cytometry, H929 + CDH18 siRNA; None 443
[4] = molecular target: T2, CADM1, endogenous in H929 multiple myeloma cells (human, UniProt Q9BY67 45-442); experiment: flow cytometry, H929 + GARS siRNA; None 0.2
T2 construct: Native protein on H929 cells (flow cytometry, siRNA knockdown) and in H929 lysates (IP/MS); RPMI-8226 cells were used for sorting with HW-97; also called IGSF4A
T2 sequence: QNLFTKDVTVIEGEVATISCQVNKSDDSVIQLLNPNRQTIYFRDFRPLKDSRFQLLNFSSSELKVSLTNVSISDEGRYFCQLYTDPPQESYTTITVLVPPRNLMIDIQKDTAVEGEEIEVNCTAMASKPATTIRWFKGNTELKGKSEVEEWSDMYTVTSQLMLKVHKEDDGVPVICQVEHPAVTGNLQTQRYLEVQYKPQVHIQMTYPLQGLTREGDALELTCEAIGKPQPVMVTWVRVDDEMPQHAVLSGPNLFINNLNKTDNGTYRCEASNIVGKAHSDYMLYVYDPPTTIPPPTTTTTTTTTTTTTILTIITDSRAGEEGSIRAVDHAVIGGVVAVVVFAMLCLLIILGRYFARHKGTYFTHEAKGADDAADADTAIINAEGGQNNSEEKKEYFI

[5] = molecular target: T2, CADM1, endogenous in H929 multiple …; experiment: flow cytometry, H929 + CDH18 siRNA; None 443
[6] = molecular target: T3, ICAM1, endogenous in H929 multiple myeloma cells (human, UniProt P05362 28-532); experiment: flow cytometry, H929 + GARS siRNA; None 0.2
T3 construct: Native protein on H929 cells (flow cytometry, siRNA knockdown) and in H929 lysates (IP/MS); also called CD54

[7] = molecular target: T3, ICAM1, endogenous in H929 multiple …; experiment: flow cytometry, H929 + GARS siRNA; None 452
[8] = molecular target: T3, ICAM1, endogenous in H929 multiple …; experiment: flow cytometry, H929 + CDH18 siRNA; None 443
[9] = molecular target: T3, ICAM1, endogenous in H929 multiple …; experiment: flow cytometry, H929 + PTPRG siRNA; None 490
[10] = molecular target: T3, ICAM1, endogenous in H929 multiple …; experiment: flow cytometry, H929 + CADM1 siRNA; None 0.89
[11] = molecular target: T3, ICAM1, endogenous in H929 multiple …; experiment: flow cytometry, H929 + PTPRG siRNA; None 2.13
PTPRG on U266 cells = molecular target: T4, PTPRG on U266 cells (human, UniProt P23470); experiment: flow cytometry, IgG1 on cell lines, heatmap of % positive cells
T4 construct: endogenous on U266 multiple myeloma cells; also called HW-1 target on U266

[12] = molecular target: T1, PTPRG, endogenous in H929 multiple …; experiment: as above

T3 sequence (P05362 28-532 limits assumed): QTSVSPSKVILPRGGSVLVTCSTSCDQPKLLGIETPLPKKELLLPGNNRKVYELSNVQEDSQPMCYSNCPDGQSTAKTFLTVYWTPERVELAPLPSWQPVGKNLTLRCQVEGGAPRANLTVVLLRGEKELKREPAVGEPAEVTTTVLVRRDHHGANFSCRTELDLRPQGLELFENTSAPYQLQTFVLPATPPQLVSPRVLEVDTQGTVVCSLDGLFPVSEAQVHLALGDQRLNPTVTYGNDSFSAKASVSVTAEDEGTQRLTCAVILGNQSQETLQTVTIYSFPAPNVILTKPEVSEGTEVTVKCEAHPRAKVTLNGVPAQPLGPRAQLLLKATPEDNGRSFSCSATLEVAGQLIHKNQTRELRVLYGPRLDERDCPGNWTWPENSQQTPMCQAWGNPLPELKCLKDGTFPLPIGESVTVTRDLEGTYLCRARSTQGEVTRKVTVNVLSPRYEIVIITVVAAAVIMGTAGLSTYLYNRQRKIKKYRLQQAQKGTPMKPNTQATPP
T1 sequence (P23470 20-1445 limits assumed): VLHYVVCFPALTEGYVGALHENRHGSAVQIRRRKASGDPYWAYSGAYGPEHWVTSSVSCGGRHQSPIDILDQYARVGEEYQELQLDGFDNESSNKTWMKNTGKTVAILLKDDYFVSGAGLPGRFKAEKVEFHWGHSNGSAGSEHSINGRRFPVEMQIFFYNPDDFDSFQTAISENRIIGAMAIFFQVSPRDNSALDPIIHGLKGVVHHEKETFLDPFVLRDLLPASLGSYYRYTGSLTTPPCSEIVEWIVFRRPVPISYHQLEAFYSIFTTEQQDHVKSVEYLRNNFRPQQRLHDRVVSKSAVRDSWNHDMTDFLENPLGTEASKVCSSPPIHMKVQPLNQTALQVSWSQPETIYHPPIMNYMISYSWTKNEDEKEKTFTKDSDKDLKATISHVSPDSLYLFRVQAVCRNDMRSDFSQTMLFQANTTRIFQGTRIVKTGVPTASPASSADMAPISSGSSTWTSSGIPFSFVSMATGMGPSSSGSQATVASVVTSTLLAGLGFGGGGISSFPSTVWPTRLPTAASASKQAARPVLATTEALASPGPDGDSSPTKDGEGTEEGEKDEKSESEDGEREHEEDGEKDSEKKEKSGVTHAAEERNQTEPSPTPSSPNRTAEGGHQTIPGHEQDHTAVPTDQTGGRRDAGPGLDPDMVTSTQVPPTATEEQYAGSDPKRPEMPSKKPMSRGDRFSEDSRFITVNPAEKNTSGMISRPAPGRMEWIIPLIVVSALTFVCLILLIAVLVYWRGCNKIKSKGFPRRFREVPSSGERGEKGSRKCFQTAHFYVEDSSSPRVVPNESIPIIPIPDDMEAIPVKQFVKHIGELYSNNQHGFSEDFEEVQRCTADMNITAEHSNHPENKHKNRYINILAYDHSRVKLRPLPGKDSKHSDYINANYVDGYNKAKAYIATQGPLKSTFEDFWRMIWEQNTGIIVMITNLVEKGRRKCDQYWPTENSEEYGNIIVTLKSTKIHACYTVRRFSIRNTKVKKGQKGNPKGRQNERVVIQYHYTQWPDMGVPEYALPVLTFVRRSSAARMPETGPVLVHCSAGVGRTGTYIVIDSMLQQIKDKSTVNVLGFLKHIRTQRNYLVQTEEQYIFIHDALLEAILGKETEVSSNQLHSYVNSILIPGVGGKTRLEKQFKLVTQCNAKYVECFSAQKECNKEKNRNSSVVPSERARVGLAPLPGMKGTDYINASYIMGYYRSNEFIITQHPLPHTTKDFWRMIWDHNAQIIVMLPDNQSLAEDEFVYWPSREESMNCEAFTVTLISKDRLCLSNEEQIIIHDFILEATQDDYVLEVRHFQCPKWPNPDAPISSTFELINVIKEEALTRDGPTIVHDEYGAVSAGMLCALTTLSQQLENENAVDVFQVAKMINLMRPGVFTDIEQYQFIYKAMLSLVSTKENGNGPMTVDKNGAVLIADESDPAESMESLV
T4 sequence (P23470 20-1445 limits assumed): as above

- Cells stained (%) [1]: 98.8%
- mAb binding (MFI) [2]: 9850
- mAb binding (MFI) [3]: 9870
B1: HW-42 chimeric rabbit-human IgG1 LA/LA/PG (antibody, V domains shown)
VH: QSVKESEGGLFKPADTLTLTCTVSGFSLSSNEISWVRQAPGEGLEYIGIIDTGGRAYYAVWARSRSTITRNTNLNTVTLKMTSLTAADTATYFCARGGVDTEWYAFSSWGPGTLVTVPS
VL: SFVLTQPASVQVNLGQTVSLTCTADTLSRRYASWYQQKPGQAPVLLIFRDTSRPSGVPDRFSGSSSGDTATLTISGAQAGDEADYYCATSDGSGSNYQYVFGGGTQLTVTG
notes: Fc-silenced (L234A/L235A/P329G) IgG1, lambda; Alexa Fluor 647-labeled in single-step flow cytometry; Cluster C-1

- Cells stained (%) [4]: 99.9%
- mAb binding (MFI) [5]: 17900
B2: HW-97 chimeric rabbit-human IgG1 LA/LA/PG (antibody, V domains shown)
VH: QKQLVESGGRLVTPGTPLTLTCTVTGIDLSSHGMSWVRQAPGKGLEWIGVIYPSGSTWYASWARGRFTISKTSTTVDLKMTSLTTEDTATHFCARGDVGGADNNIWGPGTLVTVSS
VL: B1 VL with N13D, D25E, R30S, F48Y, D68N, N96S
notes: Fc-silenced (L234A/L235A/P329G) IgG1, lambda; Alexa Fluor 647-labeled in single-step flow cytometry; Prototype of cluster C-97

- Cells stained (%) [6]: 99.8%
- mAb binding (MFI) [7]: 43200
- mAb binding (MFI) [8]: 18200
- mAb binding (MFI) [9]: 27800
- Cells stained (%) [10]: 99.7%
- Cells stained (%) [11]: 98.2%
B3: HW-113 chimeric rabbit-human IgG1 LA/LA/PG (antibody, V domains shown)
VH: QKQLVESGGGLVQPGGSLTLTCTVSGFSLNKYYMGWFRQAPGKGLEWIGVISRSGDTYYSSWAKGRFTISKASTTVDLRITSPTTEDTATYFCARDASSPGFHGDRLDLWGQGTLVTVSS
VL: B1 VL with R30S, F48Y, D68N, S93I, Q98L, Y99W
notes: Fc-silenced (L234A/L235A/P329G) IgG1, lambda; Alexa Fluor 647-labeled in single-step flow cytometry

- binding result (PTPRG on U266 cells): no binding
- binding result [12]: no binding
B4: TH9-0022 (antibody, human IgG1, kappa, L234A L235A, V domains shown)
VH: QSLEESGGRLVTPGTPLTLTCTVSGFSLSSYAMNWVRQAPGKGLEWIGIINSYGSTYYASWAKGRFTISKTSTTVDLKITSPTTEDTATYFCARVTYDSYGYGYAPYGMDLWGPGTLVTVSS
VL: LVMTQTPSSTSNAVGGTVTIKCQASQSIGNVLAWYQQKPGQPPKLLIYAASTLASGVPSRVGGSRSGTEYTLTISGVQREDAATYYCLGSDSDSDIAFGGGTELEILR
notes: also called TH9-022; negative control IgG1
